The target in experiment [1] is PhiPA3 Chimallin C (ChmC; gp61), full-length (Pseudomonas phage PhiPA3). Briefly: SEC-MALS. (Size exclusion chromatography separates by hydrodynamic size, large species first.)
Experiment [2] has as its target PhiPA3 ChmC-ΔC (residues 204-251 removed) (Pseudomonas phage PhiPA3). Put plainly: SEC-MALS.

As usually defined, the stoichiometry N is the number of molecules, sites or subunits per partner or assembly.

“PhiPA3 Chimallin C (ChmC; gp61), full-length (natural protein)” registered a stoichiometry N in experiment [1] of 4.
In the case of “PhiPA3 ChmC-ΔC (residues 204-251 removed) (domain or fragment)”, the stoichiometry N in experiment [2] is 4.
